This is an account of results in patent US6051418.

For assay [1], the target named is Factor VIII dB695 (human) (UniProt P00451).
For assay [2], the target named is Factor VIII dB695-HCII (human).
For assay [3], the target named is Factor VIII obtained from plasma.

On to thrombin (enzyme), for which the second order rate constant of activation by thrombin (M^-1 s^-1 × 10^-6) was 3e-06 M⁻¹ s⁻¹ in assay [1], 2.32e-05 M⁻¹ s⁻¹ in assay [2] and 2.1e-06 M⁻¹ s⁻¹ in assay [3].
